From publication PMC3479203

B1: Spx (15 kDa) (natural protein)
chain: MVTLYTSPSCTSCRKARAWLEEHEIPFVERNIFSEPLSIDEIKQILRMTEDGTDEIISTRSKVFQKLNVNVESMPLQDLYRLINEHPGLLRRPIIIDEKRLQVGYNEDEIRRFLPRKVRSFQLREAQRLAN

Molecular target: C-terminal SPA-tagged RpoB fusion protein (B. subtilis) (UniProt P37870)
Test: affinity purification with mass spectrometry

Sequence of UniProt P37870 (P37870 whole entry, the tested form may be a part): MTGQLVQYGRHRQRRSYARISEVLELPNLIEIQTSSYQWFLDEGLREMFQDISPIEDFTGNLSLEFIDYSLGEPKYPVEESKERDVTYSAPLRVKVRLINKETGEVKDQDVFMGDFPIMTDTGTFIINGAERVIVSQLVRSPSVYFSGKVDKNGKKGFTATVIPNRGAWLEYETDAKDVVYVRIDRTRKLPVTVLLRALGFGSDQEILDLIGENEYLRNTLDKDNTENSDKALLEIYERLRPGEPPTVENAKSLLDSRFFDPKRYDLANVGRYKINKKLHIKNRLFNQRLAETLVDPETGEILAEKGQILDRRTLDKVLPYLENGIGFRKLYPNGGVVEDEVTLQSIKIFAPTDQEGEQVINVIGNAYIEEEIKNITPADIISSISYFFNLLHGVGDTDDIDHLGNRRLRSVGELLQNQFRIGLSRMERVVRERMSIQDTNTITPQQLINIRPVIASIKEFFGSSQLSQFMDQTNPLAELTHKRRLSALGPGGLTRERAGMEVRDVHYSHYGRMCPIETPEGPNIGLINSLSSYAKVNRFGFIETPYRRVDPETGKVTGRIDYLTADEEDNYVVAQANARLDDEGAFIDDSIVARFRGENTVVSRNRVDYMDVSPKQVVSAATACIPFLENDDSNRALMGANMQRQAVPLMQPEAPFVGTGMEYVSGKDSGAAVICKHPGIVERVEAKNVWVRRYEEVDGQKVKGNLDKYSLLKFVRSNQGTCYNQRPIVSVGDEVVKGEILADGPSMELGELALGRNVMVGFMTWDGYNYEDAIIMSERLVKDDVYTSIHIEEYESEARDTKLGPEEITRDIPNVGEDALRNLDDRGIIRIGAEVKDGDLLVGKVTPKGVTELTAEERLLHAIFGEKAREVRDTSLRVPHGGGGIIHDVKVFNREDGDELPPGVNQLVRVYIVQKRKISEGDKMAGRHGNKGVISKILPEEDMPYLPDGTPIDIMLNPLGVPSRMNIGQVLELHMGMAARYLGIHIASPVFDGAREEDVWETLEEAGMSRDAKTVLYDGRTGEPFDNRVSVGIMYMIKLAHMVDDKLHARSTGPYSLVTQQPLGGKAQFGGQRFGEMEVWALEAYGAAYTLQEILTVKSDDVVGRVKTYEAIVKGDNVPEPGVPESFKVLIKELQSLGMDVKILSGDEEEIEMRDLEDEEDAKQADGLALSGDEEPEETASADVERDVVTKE

Molecule	relative fraction of RNAP bound to SigA, diamide stress	relative fraction of RNAP bound to SigA, no stress	relative fraction of RNAP bound to Spx, diamide stress	relative fraction of RNAP bound to Spx, no stress
SigA (43 kDa) (from UniProt P06224 1-371) (natural protein)	58.1%	61.5%	–	–
B1	–	–	21.6%	11%
